From publication PMC3608507 (Molecular Biology of the Cell, 2013)
Read-outs that look alike come from different tables or passages of the source. Each block holds one binder with its values, some of them ahead of it.

What was measured:
Test in all cases: ELISA
[1] = target: His-paxillin (full-length) (UniProt P49023 1-591)
His-lasp-2 (full-length) [2] = target: T1, His-lasp-2 (full-length) (UniProt Q9DC07 1-270)
T1 sequence: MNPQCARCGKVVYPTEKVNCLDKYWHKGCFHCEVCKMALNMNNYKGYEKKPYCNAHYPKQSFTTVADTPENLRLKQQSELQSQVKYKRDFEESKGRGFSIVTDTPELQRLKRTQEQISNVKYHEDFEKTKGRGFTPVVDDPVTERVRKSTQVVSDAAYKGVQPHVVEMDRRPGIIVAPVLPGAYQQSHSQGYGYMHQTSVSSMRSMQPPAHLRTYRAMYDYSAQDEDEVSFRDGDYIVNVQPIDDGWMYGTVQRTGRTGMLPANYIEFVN

His-lasp-2 (full-length) [3] = target: T1, His-lasp-2 (full-length); remark: listed apart in the source

His-paxillin (full-length), sequence (P49023 whole entry): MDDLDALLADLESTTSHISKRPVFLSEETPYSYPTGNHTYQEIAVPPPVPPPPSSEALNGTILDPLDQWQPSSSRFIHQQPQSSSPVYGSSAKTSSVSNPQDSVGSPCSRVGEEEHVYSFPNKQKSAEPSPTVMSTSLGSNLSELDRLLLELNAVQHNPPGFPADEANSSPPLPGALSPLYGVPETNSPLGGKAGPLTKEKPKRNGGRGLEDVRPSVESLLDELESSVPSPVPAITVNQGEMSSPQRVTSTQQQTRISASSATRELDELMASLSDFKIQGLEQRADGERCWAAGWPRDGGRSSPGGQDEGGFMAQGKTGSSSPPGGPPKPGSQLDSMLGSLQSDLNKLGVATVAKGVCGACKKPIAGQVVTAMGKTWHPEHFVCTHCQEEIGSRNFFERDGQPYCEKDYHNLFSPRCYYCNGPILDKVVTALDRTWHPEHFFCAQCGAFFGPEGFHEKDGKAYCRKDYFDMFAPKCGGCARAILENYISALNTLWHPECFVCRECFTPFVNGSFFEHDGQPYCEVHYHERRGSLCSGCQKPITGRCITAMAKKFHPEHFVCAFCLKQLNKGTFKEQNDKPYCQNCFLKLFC

- Kd [1]: ~20 nM
B1: GST-lasp-2 (full-length) (natural protein)
chain: MNPQCARCGKVVYPTEKVNCLDKYWHKGCFHCEVCKMALNMNNYKGYEKKPYCNAHYPKQSFTTVADTPENLRLKQQSELQSQVKYKRDFEESKGRGFSIVTDTPELQRLKRTQEQISNVKYHEDFEKTKGRGFTPVVDDPVTERVRKSTQVVSDAAYKGVQPHVVEMDRRPGIIVAPVLPGAYQQSHSQGYGYMHQTSVSSMRSMQPPAHLRTYRAMYDYSAQDEDEVSFRDGDYIVNVQPIDDGWMYGTVQRTGRTGMLPANYIEFVN

- Kd (His-lasp-2 (full-length) [2]): ~140 nM
B2: His-vinculin-tail (amino acids 840-1066) (domain or fragment)
chain: PDFPPPPPDLEQLRLTDELAPPKPPLPEGEVPPPRPPPPEEKDEEFPEQKAGEVINQPMMMAARQLHDEARKWSSKGNDIIAAAKRMALLMAEMSRLVRGGSGTKRALIQCAKDIAKASDEVTRLAKEVAKQCTDKRIRTNLLQVCERIPTISTQLKILSTVKATMLGRTNISDEESEQATEMLVHNAQNLMQSVKETVREAEAASIKIRTDAGFTLRWVRKTPWYQ

- Kd (His-lasp-2 (full-length) [3]): ~15 nM
B3: GST-lasp-1 (full-length) (natural protein)
chain: MNPNCARCGKIVYPTEKVNCLDKYWHKACFHCETCKMTLNMKNYKGYEKKPYCNAHYPKQSFTMVADTPENLRLKQQSELQSQVRYKEEFEKNKGKGFSVVADTPELQRIKKTQDQISNIKYHEEFEKSRMGPSGGEGVEPERREAQDSSSYRRPTEQQQPQPHHIPTSAPVYQQPQQQQMTSSYGGYKEPAAPVSIQRSAPGGGGKRYRAVYDYSAADEDEVSFQDGDTIVNVQQIDDGWMYGTVERTGDTGMLPANYVEAI
